Test results published in the supplement of paper PMC9170038.

Test system: MS2 coat protein
Test: apparent KD of MS2 coat protein; designed switch direction (-1 OFF switch, 1 ON switch): -1; higher = weaker reporter binding
Method in brief: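 Each step of the titration lasted 0.8–1.5 h at the lowest concentration and 10–20 min at the highest. The protein, SNAP-549-labelled MS2 coat protein, went from 0.7 or 1.5 nM doubling to 3 µM over RNA switches transcribed on Illumina chips by stalled E. coli RNA polymerase. Normalised cluster fluorescence was curve-fitted, and the per-design median over clusters is given as apparent KD.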

[1] = input ligand: microRNA oligo, concentration not stated
[2] = Eterna round: R95, input ligand: FMN 200 uM
[3] = Eterna round: R95, input ligand: microRNA oligo, concentration not stated
[4] = Eterna round: R95, input ligand: none

Sequence	apparent KD of MS2 coat protein (input ligand: FMN 200 uM) [nM]	apparent KD of MS2 coat protein (input ligand: none) [nM]	apparent KD of MS2 coat protein [1] [nM]	apparent KD of MS2 coat protein [2] [nM]	apparent KD of MS2 coat protein [3] [nM]	apparent KD of MS2 coat protein [4] [nM]
UUUUAUAGAGGAUAUGCGUGAAUAUAUAUUCAUGGAAAUUUACAUGAGGAUCACCCAUGUAGAAGGUUGUGUUU [LRO-Excl2-20-mod 090 by JR] (Eterna round: R97, puzzle: Exclusion 2)	13.3	11.9	–	–	–	–
GCAGCUUAGUUAACAGACUGUUACAUGAGGAUCACCCAUGUACAGGAUAUGGUCUGGAUUACAGGCCAGAAGGGUACAAGCUGC [Eli exng3 - 018] (Eterna round: R96, puzzle: Exclusion NG 3)	9.62	11.5	9.01	–	–	–
AGUACUAUCACGAAAGUGAUAGUACAAUAAGCAAGUGAAACAUGAGGAUCACCCAUGUCCUCAUUUGCUCGUCUUAU [salish99_TOv2_r3_200again] (puzzle: Sensor v3, turn-off variant 2)	–	–	–	17.8	749	17
GCAGCAUAGUUUACUAACUGUUACAUGAGGAUCACCCAUGUUUAGGAUAUGGUCUGGAUUACAGGCCAGAAGGAAACAAGCUGC [Eli exng3 - 033] (Eterna round: R96, puzzle: Exclusion NG 3)	12.8	12.4	9.51	–	–	–
ACUCAGUGAGGAUAUCGCCAAAGAGCCGUAACGGCCUUUGAUGAGAAGGCACAUGAGGAUCACCCAUGUAAGCA [EX4 C.1] (Eterna round: R97, puzzle: Exclusion 4)	387	122	–	–	–	–
CCUCCGGUACGAGGAUAUCUGACGGCCGCCGGAGGAGAAGGCGUACAUGAGGAUCACCCAUGUCCAGCGUGCACCACGCUGGUU [Usbius] (Eterna round: R96, puzzle: Exclusion NG 1)	119	44.9	38.1	–	–	–
UGAAUAAUAGUAAGGAUAUCAGCCGCGAAAGUGGCUGAGAAGGUACAUGAGGAUCACCCAUGUGAAAUAAGAAU [Mod of Zala 19 - Jieux - Brourd's Mod of Exclusion 4] (Eterna round: R97, puzzle: Brourd's mod of Exclusion 4)	27.1	19.8	–	–	–	–
UUACGGAUAGAGGAUAUAUUAAGGAAGGUUUCGAUAGAAGGCUAGACAUGAGGAUCACCCAUGUAUAUUGGGAU [JR_Ex6_Sub073] (Eterna round: R97, puzzle: Exclusion 6)	164	97.9	–	–	–	–
AUUUAGAGAGGAUAUAUAAAGUGAAACAUGAGGAUCACCCAUGUAAUUUUAUGGAUGUAAAUAGAAGGCUCAUUUA [Mat - Exclusion 5 - JL mod - D1] (puzzle: Exclusion 5)	–	–	–	23.7	28.9	30.1
AGCUGUGGCCGAGGAUAUCUAAACCUCAAAACCGAGGUAUACUCGGACAUGAGGAUCACCCAUGUAGAGAAGGCGGUCUCAGCA [Eli eng2 - 036] (Eterna round: R96, puzzle: Exclusion NG 2)	107	443	190	–	–	–
GGAUCGAAUGUGAGGAUAUACCACUGGAUACAGUGGUAGAAGGCACAUGAGGAUCACCCAUGUCUCUACGAUCC [Fiskers BMX 4 - 43] (puzzle: Brourd's mod of Exclusion 4)	–	–	–	–	21	–
UGAAACCUAGGAUAUACAUGAGGAUCACCCAUGUAAUGUAGUAUAGUAUAUGUAAGAUGUAGAAGGAGGAAAGU [LRO-Excl05-27-Smart Aleck] (Eterna round: R97, puzzle: Exclusion 3)	26.3	37.7	–	–	–	–
ACUCACGCAGGAUAUACAUGAGGAUCACCCAUGUUCGAAGGGCGUGGGCACAAAGUCUGUAGAAGGGCGAAAAU [Zave] (Eterna round: R97, puzzle: Exclusion 3)	19.2	16.3	–	–	–	–
CCAGGCUGUGUGAGGAUAUGCUGGUCCUUGGAUCAGCAGAAGGCACAUGAGGAUCACCCAUGUGAAGAGCUUGG [JL bmx4 3.23] (puzzle: Brourd's mod of Exclusion 4)	–	–	–	–	15.6	–
ACAUGAGGAUCACCCAUGUCCGGCUGGUCCGUCUCGGCUGUCGAGGAUAUGGCUCGGUGUCCGCGCUAGAAGGUGGGAGCCGGC [Aenatbe mod 73] (Eterna round: R96, puzzle: Exclusion NG 3)	332	266	127	–	–	–
AGCAGCCAAUCAGGAUAUACUUUCAGGUGAAGCGUCGCGGGCGAUAACAUGAGGAUCACCCAUGUGUAGAAGGGAUGCGCAAAC [Eternabot solution 39] (Eterna round: R96, puzzle: Exclusion NG 2)	45.8	41.2	30.3	–	–	–
ACAAGCUUUUUGUUCGUCUUAUAAAAUCCUAAGAGGAUAACAUGAGGAUCACCCAUGUAACAAAGACGGACUCAUGU [Sesor Array 13 - Jieux - Sensor v3, turn-off variant 2] (puzzle: Sensor v3, turn-off variant 2)	–	–	–	11.7	120	9.57

Sequence	apparent KD of MS2 coat protein (input ligand: FMN 200 uM) [nM]	apparent KD of MS2 coat protein (input ligand: none) [nM]	apparent KD of MS2 coat protein [1] [nM]	apparent KD of MS2 coat protein [2] [nM]	apparent KD of MS2 coat protein [3] [nM]	apparent KD of MS2 coat protein [4] [nM]
AAAUUGGUAGAGGAUAUCGCACAGGAUUUACUGCGAGAAGGCUGCACAUGAGGAUCACCCAUGUUUAGUUGCGA [EX6 #36] (Eterna round: R97, puzzle: Exclusion 6)	20.3	17.3	–	–	–	–
GACAAGGUGUAGGAUAUGCUUAGCCUUAAGAAAGCAGAAGGACAAACUUGAGGAUCACCCAAGUGGUCCAAACA [Diraveti] (Eterna round: R97, puzzle: Exclusion 6)	65.5	19.6	–	–	–	–
CCAGCGUAUGUGAGGAUAUGCUGGUCCUUGGAUCAGCAGAAGGCACAUGAGGAUCACCCAUGUGGAAACGUUGA [Mod of JL 2 - Jieux - Brourd's mod of Exclusion 4] (Eterna round: R97, puzzle: Brourd's mod of Exclusion 4)	44.9	19.9	–	–	–	–
GCUGCGCGAGGAUAUGCGGUUUGUGCUUUGGCCCGUGGCGUACAUGAGGAUCACCCAUGUAGAAGGCGUGUGGG [Apr-15 SS2-53] (puzzle: Exclusion 2)	–	–	–	–	18.1	–
AGCUGUGGCCGAGGAUAUCACGAACCAUGGAAAACCAUGGAACUCAUACAUGAGGAUCACCCAUGUGAGAAGGCGGUCUCAGCA [Eli eng2 - 019] (Eterna round: R96, puzzle: Exclusion NG 2)	–	–	27	–	–	–
CGCCUGGGAGGAUAUCCAAUAUAUGACAUGAGGAUCACCCAUGUUUCCACUCGUACCUCCGGAGAAGGCCCGGCGU [Ex5 #31] (Eterna round: R97, puzzle: Exclusion 5)	21.7	26.7	–	–	–	–
UUUAUAAUUUCAAUCUUCGCCAGCAAACUAACACUGGCCACAUGAGGAUCACCCAUGUUUUUUGUUCGUUUUAUUCU [Cesoorso] (puzzle: Sensor v3, turn-off variant 2)	–	–	–	21.6	62.9	23.3
UUGAUUGGUGUAGGAUAUGUAUGAGGAUCACCCAUUAAUAAAUUUUAACCACGAGGAUCACCCGUGUAGAAGGACAUUGGUCAA [pwkr exNG2 2xF5 1xFMN.19] (Eterna round: R96, puzzle: Exclusion NG 2)	33.1	38.4	23.5	–	–	–
GAUCGACAUGAGGAUCACCCAUGUCAGGAUAUGCAACGGACAAAACGAUACGUCAUAGGUAGAAGGGACUGUCU [Eternabot (Original) Solution 2] (Eterna round: R97, puzzle: Exclusion 1)	18.4	17.7	–	–	–	–
ACUUGUUGUCCUUGAUUUUACAUGAGGAUCACCCAUGUUAUUUUGAUUAUGAUGUGUAAGUUUGUUGCUCGUUUUAU [JR_STOV1_Sub067] (Eterna round: R97, puzzle: Sensor, turn-off variant 1)	61.9	67.4	–	–	–	–
UCUUAUUGCAAGGAUAUGCUUUUUAUUUCUUUUGCAGAAGGUGCAACAUGAGGAUCACCCAUGUUUCCGGGCAU [JR_E6_Sub035] (Eterna round: R96, puzzle: Exclusion 6)	34.4	21.5	16.4	–	–	–
GGGCCCGGAGGAUAUACAAUGCGCGCGCGAAAGUGUGUGUUACAUGAGGAUCACCCAUGUAGAAGGCCGGGCCC [-39.9, -36.7 kcal A 24%, 6,0] (Eterna round: R97, puzzle: Exclusion 2)	39.4	16.7	–	–	–	–
UAUACCCGAGGAUAUACAUGAGGAUCACCCAUGUAGUGAAAGCUCUAAGAGCGCUCAGGUAGAAGGCGGAUUAA [EX3 A.9] (Eterna round: R97, puzzle: Exclusion 3)	24.9	18.8	–	–	–	–
UUUAACAAGCCAGAUCCUCACAUGAGGAUCACCCAUGUGCUCGUCUGAUUUUGUACUAUCACGUUUGUGAUAGUGUU [Level Boss var2-07] (puzzle: Sensor v3, turn-off variant 1)	–	–	–	240	19.1	124
AAAUUAGCAAGUAGGUCCGACAUGAGGAUCACCCAUGUAAGCUAAUCUUACGCUGCAUGAGAGUGCGCUCGUCUUAA [Sensor-V1 #19] (Eterna round: R97, puzzle: Sensor, turn-off variant 1)	360	515	–	–	–	–
ACAGUUUUGCAAGGAUAUCGUUUUAGUUUAUUACGAGAAGGUGCUUUAGUUAUUUCUUUGGGUUGACAUGAGGAUCACCCAUGU [JR_ExcNG1_Sub057] (Eterna round: R96, puzzle: Exclusion NG 1)	136	148	144	–	–	–
